Tests used:
Conditions in all cases: both partners purified
[1] = molecular target: T1, cytochrome P450 3A4 (CYP3A4), human, C-terminally His-tagged, expressed from pB84 (human, UniProt P08684 1-503); assay: absorbance spectroscopy of the co-purified nanodiscs (fit of a convolution spectrum); CPR-CYP3A4-nanodiscs of bovine liver microsomal lipid after Ni-affinity and gel filtration; spectra of singly loaded nanodiscs as basis spectra
T1 construct: human cytochrome P450 3A4 with its own N-terminal membrane anchor domain; expressed with an OmpA leader that is cleaved off during membrane targeting; source: E. coli K12 JM109, solubilised with CHAPS, purified (Ni-NTA agarose); not shown: His-tag, C-terminal, kept
T1 sequence (P08684 whole entry, the tested form may be a part): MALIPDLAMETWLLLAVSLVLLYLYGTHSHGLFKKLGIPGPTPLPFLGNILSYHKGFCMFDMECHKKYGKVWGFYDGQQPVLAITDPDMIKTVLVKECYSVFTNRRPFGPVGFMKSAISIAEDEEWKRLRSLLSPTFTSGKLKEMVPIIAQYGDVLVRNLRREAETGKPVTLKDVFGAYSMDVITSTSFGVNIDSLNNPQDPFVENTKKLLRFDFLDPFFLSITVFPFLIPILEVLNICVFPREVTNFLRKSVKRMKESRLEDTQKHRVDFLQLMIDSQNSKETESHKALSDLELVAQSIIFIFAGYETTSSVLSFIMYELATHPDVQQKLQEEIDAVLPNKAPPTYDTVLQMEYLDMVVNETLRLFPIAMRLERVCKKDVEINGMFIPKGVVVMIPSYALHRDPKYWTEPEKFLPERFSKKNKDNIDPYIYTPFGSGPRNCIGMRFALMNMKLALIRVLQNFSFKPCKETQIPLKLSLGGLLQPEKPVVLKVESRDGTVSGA

[2] = molecular target: T1, cytochrome P450 3A4 (CYP3A4), human, …; assay: absorbance spectroscopy of the co-purified nanodiscs (fit of a convolution spectrum); CPR-CYP3A4-nanodiscs of POPC after Ni-affinity and gel filtration; spectra of singly loaded nanodiscs as basis spectra
[3] = molecular target: T1, cytochrome P450 3A4 (CYP3A4), human, …; assay: absorbance spectroscopy of the co-purified nanodiscs (fit of a convolution spectrum); CPR-CYP3A4-nanodiscs of mixed lipid (ER mimic) after Ni-affinity and gel filtration; spectra of singly loaded nanodiscs as basis spectra

B1: NADPH-dependent cytochrome P450 oxidoreductase (CPR), full-length human, expressed from pPORh1 (enzyme)
chain: GIPGSMGDSHVDTSSTVSEAVAEEVSLFSMTDMILFSLIVGLLTYWFLFRKKKEEVPEFTKIQTLTSSVRESSFVEKMKKTGRNIIVFYGSQTGTAEEFANRLSKDAHRYGMRGMSADPEEYDLADLSSLPEIDNALVVFCMATYGEGDPTDNAQDFYDWLQETDVDLSGVKFAVFGLGNKTYEHFNAMGKYVDKRLEQLGAQRIFELGLGDDDGNLEEDFITWREQFWPAVCEHFGVEATGEESSIRQYELVVHTDIDAAKVYMGEMGRLKSYENQKPPFDAKNPFLAAVTTNRKLNQGTERHLMHLELDISDSKIRYESGDHVAVYPANDSALVNQLGKILGADLDVVMSLNNLDEESNKKHPFPCPTSYRTALTYYLDITNPPRTNVLYELAQYASEPSEQELLRKMASSSGEGKELYLSWVVEARRHILAILQDCPSLRPPIDHLCELLPRLQARYYSIASSSKVHPNSVHICAVVVEYETKAGRINKGVATNWLRAKEPAGENGGRALVPMFVRKSQFRLPFKATTPVIMVGPGTGVAPFIGFIQERAWLRQQGKEVGETLLYYGCRRSDEDYLYREELAQFHRDGALTQLNVAFSREQSHKVYVQHLLKQDREHLWKLIEGGAHIYVCGDARNMARDVQNTFYDIVAELGAMEHAQAVDYIKKLMTKGRYSLDVWS
notes: printed in three-letter code as Gly-Iso-Pro-Gly-Ser; human NADPH-dependent cytochrome P450 reductase (CPR), full length with its N-terminal membrane anchor domain; Expressed with an N-terminal OmpA leader for periplasmic membrane targeting; also called cytochrome P450 reductase; full-length CPR; source: E. coli C41(DE3), solubilised from membranes with Triton X-100, purified (2',5'-ADP Sepharose …)
stoichiometry N [1]: 1 CPR : CYP (molar ratio) | stoichiometry N [2]: 0.8 CPR : CYP (molar ratio) | stoichiometry N [3]: 1.1 CPR : CYP (molar ratio)

— publication PMC5575521, “Liver microsomal lipid enhances the activity and redox coupling of colocalized cytochrome P450 reductase‐cytochrome P450 3A4 in nanodiscs” (The Febs Journal, 2017)
